Assay results taken from the DeepSol protein solubility set.

experiment: soluble on expression in E. coli; label from the status in PepcDB or PDB records

Soluble on expression in E. coli, not soluble:
MGSDKIHHHHHHMQLTSENYYSQEANKEYMSVSGYKDFAGTYGKMPCEFYGMEKLNGRWEDEKSTALLVGSYVDSYFEGSLDQFKKDNPEIFTQKGELKANFKQAEEIIARIERDEYFMKYMSGQKQVIMTGELFGAKWKIKMDSYIPGVAIVDLKVMASITDLKWVKDIGYLDFVRYWGYDIQGAVYQEIVRQNTGEKLPFFIAGATKQTEPDIRIIHVTDNYLQEALHMVEMNMPRILRVKNGEVEPDRCELCDCCRHNRVLKKPISIMDLTAGI
MQLSPKEFEYQFRCLYRPLNMYALRYTENLDDAEDIVQQAFSDVWEKLVGGTSIQNLKAYMYQTVRNRSLTLITNRQTHCETTELTDLEDLTEEERIIRSERDARLWTAIDHLPTERKKIFLLSKRDGLTYQEIATELGISIKTVEHQISKALKTLRETAIKIYTFFFG
MSLESRPLHVVLGNEACDLDSTVSALALAFYLAKTTEAEEVFVPVLNIKRSELPLRGDIVFFLQKVHIPESILIFRDEIDLHALYQAGQLTLILVDHHILSKSDTALEEAVAEVLDHRPIEPKHCPPCHVSVELVGSCATLVTERILQGAPEILDRQTAALLHGTIILDCVNMDLKIGKATPKDSKYVEKLEALFPDLPKRNDIFDSLQKAKFDVSGLTTEQMLRKDQKTIYRQGVKVAISAIYMDLEAFLQRSNLLADLHAFCQAHSYDVLVAMTIFFNTHNEPVRQLAIFCPHVALQTTICEVLERSHSPPLKLTPASSTHPNLHAYLQGNTQVSRKKLLPLLQEALSAYFDSMKIPSGQPETADVSREQVDKELDRASNSLISGLSQDEGHHHHHH
KDADVDITLIDRTNHHLFQPLLYQVATGILSSGEIAPQTRQVLAQQNNVHVLKAEVTDIDTESKTVVADLDDYSKTIEYDSLIVAAGAGQSYFGNDHFAEFAPGMKTIDDALELRARIIGAFERAEMCEDPKERERLLTFVIVGAGPTGVELAGQLAEMAHRTLSGEYTQFTPSNAKIILLDGAPQVLPPFGKR
MGSDKIHHHHHHGPASGRVEMKGESDSLSVRHGQENALSVSDEYPEGYVPVPGIRYQANYLTGNPERLDVKAALRNVRPLKLSQLGSQLDFMVFKDVKGGIFRLIPIEEGCLGVGIGGIWLLDGNLKMIRMLFRNDVDITEENGFTNFQTKRYINPDYYEKSSRTLIGVLYDQRDKKNPKSFVRLSLKDLLSASRPLTPDDIHKRAGISGNYLLGMADGYATWTRFTNDVYTFNLRGDTLCHFTIGEKVNYPPRGNGSYRSGEQATVYHYKGCPMIIMPYGNTVYRMKDASTLEPVYELDFGTLHRATGEEVVGGADVDNAYFLSDWVETDSYVFMHVEKGYDCPYARDKKQVTLYSLIYDKRSKAFFSLPQAEKTVHPCPEPDLPDGIPFWPRKGFSEEQLATFTTGWKLSKSSPEVFKRIPALQGTEKETTSLIITLK
MRIAIEKIIGLLKNQSSKESNVKIHRLAYITNSKFDGNNYIDRWCKIRNSHIGEYSYIGFGSDFNNVEVGRYCSISSDVKIGLGKHPTHFFSSSPIFYSNNNPFNIKQKFIDFNDQPSRTTIKNDVWIGANVIIMDGLTINTGAVIAAGSVVTKNVGAYEVVGGVPAKVIKKRFDNKTIEKLLESKWWEKTPDKLKGFSVEYLNKKDT
MEPPSPVGNPEIPSEIPKNAEKTVYKYIDEQGIEIFIEDPIYVEENGNTMVYGNPYDPTTSSQEIYEEEIVDEEYIFQVDSLPSTSSSSAAAPPPSKRARLIKDGVAYPSNTVLLTNQSLEAKNATFLAKAGARREEKEPKKQIPMINKHGSILNRNLPGMTNMFKVMAESALAKTDEMIKQEAMNNTVEEVEKGRKLDNSSRFGLENEESDQDGQSDTPPPMERLGEADDFQPTTTTFDQWPLYSNRAIDFKGFSTYQKKNYFENWKILSSFKKVFSKNFQFLAKILKFISMRDPHRNSRNRRGKNIPSGKTRFYTETADGNLIRADDGKGRLKQWTKEFTYKIILKKYDNQVTRGGDEGRGQFQRKIYTGFKGAGRLPFSIVTYSWHAGRPWNFVPPVTSRQTVRRPNWEKKSYEKVNMTSMPQMVSAYYEGFNIYSHCIVSFDEATAIMLGATPIDTNKLVIIIVAGPKISRNFPIFRLCSSVPLGYRQNGTFVIDLKRMGHCLLELRRDDNGIWNKPSGFSRFYKISENGDAIRVDKAGKLPAGMDYDVKIASKRYEHTQVQKNFVRKIYTAKGKNSESFPGSPEYAVIVYYWKGEPIQFEPAFKQNGVRTESKEYSRYQQIADEEQEFVEATGSMDPVVENLQKNLAPSPPPLLKRVTFPPEPQQSTSSTSAENLHELKLQLIRREMQNQDRFSAVLDRADGLLARMEQRFGVEHHHHIVHQEQEEEVWDHEQIIEEEEVIVQDTMEY
MVQESIISSFRGKLENDPSKSTSLATVETLLEVLDRSRATTVAEFQNELNQVVAALEKTDYSSTSIRSAADLFTRFTSLAPAALLDQEDFSQVLDLYRQRARSFIKNVRGSRAKISKCARLFFTHHMNILTHSYSKVVLETILDAHKSGYHLHVWVTESQPDASGKLVFEELKKNGVPTTLVLDSCVGYVMERIQAVLVGAEGVMETGGIINKIGTVNVCIIAKSRHVPVYVCAETIKFVREFPLNQADIPQEFKYRTSVIERNNLELEHPDVDYTAPEFLTLIITDVGAMKPEAVGEELIKMYI
MGSDKIHHHHHHVQTPALIIVTGHPATGKTTLSQALATGLRLPLLSKDAFKEVMFDGLGWSDREWSRRVGATAIMMLYHTAATILQSGQSLIMESNFRVDLDTERMQNLHTIAPFTPIQIRCVASGDVLVERILSRIAQGARHPGHCDDRSPADLELVRSRGDIPPLPLGGPLLTVDTTFPEQIDMNAIVQWVRQHLQSGTAFL
MYKTFYSLSREPFAKETDPSEAYQGAAFQEALRALEYVKRTRGIGLLIGEPGAGKTFALRALKESLNPSLYHVVYFPLSTGGVMDFYRGLALGLGEEPKYRKVDLFRQIQQAIERLHHERRITPVFILDEMHLAKDAFLQDIAILFNFEMDSTNPFVLILAGLPHLQGKLRLNQHRPLDQRIIMRYRMGPMEKEEVAGYIEHRMKQAGAKHPIFTPSALEAIALQSRGWPRVINTLATTCLLYGHQLKKDVIDEEVVRMAAEEMGY
MASGDFRLCDVVLDDSIGRSTPDVEHERAVAIFDLIEENTFEPAGHDGGPYRLHISLVDAKLVFAIKTEDDKDVSTHILSLTPFRRIIKDYFLICESYYEAIRSSTPSQIEAIDMGRRGIHNDGSQTLMDRLSGKIKVDFDTARRLFTLVCVLYWRG
KRFGWTNELMFLFAPIPWSRLPYHSIGYRASGRSYARKEHKPFRYNGFSPGIGINSCLWWKVSVRDEYIFRIGLNVGYEYMDQLYAYRHFKVNEEKPLSSLSQRLKHIGHIGLNFALSLN
MGSDKIHHHHHHMARYRVHVNDPLDKEATQLLMNKEELEVTSEHLEKDELMKIIPEVDVLVVRSATKVTADIIEAGKNLKIIARAGIGLDNIDVQKAKEKGIKVLNTPGASAPSVAELAMGLMLACARHIARATVSLKEGKWEKKALKGKELLGKTLGLIGFGNIGQEVAKRALAFGMKIIAYDPAKPETDLPVEYVDLDTLFKESDFISLHVPLTESTRHIINRESIAKMKDGVIIVNTARGGTIDEEALYEEVVSGKVYAAGLDVFEVEPPTDEIRRKLLSLDNVVATPHIGASTAEAQRRVGIELVEKIFKELGI
MGSDKIHHHHHHMRKHGGDVYAYSGQYENILDFSANTNAFIDTGVLSRYPEVSPGDIEKMILQYTGAKSLRVIIGPGLTHFIYRIPAWMGLRRSLIIEPNFNEYEASLLAYGSRTSSLGLGVLKRNPEIVRSYRPDSIFICSPVNPTGDLVDAGLLRKLSMEMSRMGGILFVDQAFGDFVPEHAEETVRIAEEMGNVIIGRSLTKILSIPSLRLGYILVSDQVFGMIRDREEPWAVCEPALEFVRKADLKALRDTSLKRIGEERSYLMEALENMGFEILGDPHANFIAFRSPFEIDLKKQLLKSGILIRDLSDYADFGKNCYRVAVRGRSENALLIQALRNAIL
MGSDKIHHHHHHMSLLINLSFAPLQPTGWLTYSLNLLPHIKYLGVNVLSPREIPEVKVYQSPTNITTECGIKGHFQRLMWVQFKLPSFYKKLKSQLLFSPIPEVPLFSRCRSIVTIHDLIPLRFPQEFSAAQLFYCRNYLPAVIKQSEHIICNSLSTAHDIQNFLGVPEKKITITSLAIDTENFKFLDLPKKNYFLYYGRHNIYKNLNRIIAAFAALPNKDYELWLAGPNDARYTPTLQAQVEELGITHRVKFLDYVSYSELPVIINQAIALVFPSLWEGFGFPVLEALACGTPVITSNLSSLPEVAGDAAILINPYNTAEITDAMQNIANDVKLQSHLSTQGIARANQFSWERTGKATSEVLSRYL

Soluble on expression in E. coli, soluble:
MSLNEKVALVTGASRGIGFEVAHALASKGATVVGTATSQASAEKFENSMKEKGFKARGLVLNISDIESIQNFFAEIKAENLAIDILVNNAGITRDNLMMRMSEDEWQSVINTNLSSIFRMSKECVRGMMKKRWGRIISIGSVVGSAGNPGQTNYCAAKAGVIGFSKSLAYEVASRNITVNVVAPGFIATDMTDKLTDEQKSFIATKIPSGQIGEPKDIAAAVAFLASEEAKYITGQTLHVNGGMYMA
SGAAGPSSASVKEFQNLVDQHITPFVALSKKLAPEVGNQVEQLVKAIDAEKALINTASQSKKPSQETLLELIKPLNNFAAEVGKIRDSNRSSKFFNNLSAISESIGFLSWVVVEPTPGPHVAEMRGSAEFYTNRILKEFKGVNQDQVDWVSNYVNFLKDLEKYIKQYHTTGLTWNPKGGDAKSATP
GPGSMSTWEQAVEEADKAFAKRDCKAVCEIIEKAESDGTCHVQLMWRRARALHTLGDESLDKSEKERYARDAAVAAERAVEEDPTSAEANLWKAICIGILCDYLTTKERMSNVYVIRDHLLRSLELKSDNPDALHGMGMWSLSLLQISWFERSAASLLFGSLPTVSHEECLKYFLASHELRPSIRNCLALGNLFRYQGNWTEAKTWYQKALDIPAETHAHKQKQDEAVQLLNSC
MSLVMSGEKMKVIIVEDEFLAQQELSWLINTHSQMEIVGSFDDGLDVLKFLQHNKVDAIFLDINIPSLDGVLLAQNISQFAHKPFIVFITAWKEHAVEAFELEAFDYILKPYQESRIINMLQKLTTAWEQQNNAAEGHHHHHH
MSLICKRFALVGSGFIGQVHAASLARHEGSALTMVADAAPERAQALAARYGARAVTVSEAIHSDAIDAVLIASSTPSHAELLEAAARAGKAVYCEKPIDLSLARAREVVERVLPLNVPVTVGFNRRFDSSHQQLRRQLEQGLIGRVELVQMVCRASSMPPLDYLRSSGGQMRDQAIHFFDLLRFLTGDEVRTVAAMGAALALPDIAEFGDVDTSILMMQMRGGALAQLDNTRRTGHGYDERITLLGAEGALESGSQSPAGPTLWRGNQRIEPGLWPDWFSRVQGSYYQHLDAFIRSLNGETVADLPGLLDGLQAQAIAEAAVQSLQHGQFVAVDDEGHHHHHH
MNNAHEENISSVTGFKSTSGSPAIGSSLPGRSGEGRSSSSSSGSTALLAVVNSTLKAIFSNTLDSIFHMVCTDSDKRLSSEFHCLQSMFNLQLFVNLGCPLS
MRKGLLAALLLLSACQVLEGSGYRVTEVQFLFPEATERWTYFYGEPRVVELDGRPLRLEAPQGENLWAFPGALWVEGSPVLRATYPSRPPVAEAVRGVSGSLLQVRAQAPLLATWLYDGVGWVRLTGSLREGEERTLVQPANYQTPRLFPLTEEESAVVLREVLARRGGKPVVVFELREPPLPPLRLSPAPDAYRIARLQVQYGLRLEPVMPPAPIFRVLGQGTQAAYQEEAPLALLANDPTSFNRLWALAVGNQLPRPAAPAVDFRNRSVAAFFWGLKPTGGYGLKVVGVTYAGERARVVLSLGAPKPGAITTQALTSPYVVLELQKVRRVVFADTSGKVLAEARD
